# In article PMC2783839:
# T1: NEUROG2 (cNEUROG2) (Gallus gallus (chick)?, UniProt Q9YH82 1-213)
# T1 sequence: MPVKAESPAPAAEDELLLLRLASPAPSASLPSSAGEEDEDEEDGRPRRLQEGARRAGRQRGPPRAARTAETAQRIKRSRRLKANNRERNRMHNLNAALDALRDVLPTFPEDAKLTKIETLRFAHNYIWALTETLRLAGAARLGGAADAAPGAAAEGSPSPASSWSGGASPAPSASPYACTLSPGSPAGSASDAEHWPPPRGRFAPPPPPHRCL
# Molecular target: T1, NEUROG2 (cNEUROG2)
# Assay: EMSA
binder,measurement,value
(Ebox)3 (dsDNA) DNA 1: GATCCAGGCAGGTGGCAGGCAGGTGGCAGGCAGGTGGCAGATC DNA 2: GATCTGCCACCTGCCTGCCACCTGCCTGCCACCTGCCTGGATC,binding result,no binding
